According to patent US20170260274A1 (LUTANA, published 2017):

B1: humanized anti-epidermal growth factor receptor (EGFR) scFv IZI08 (scFv)
scFv: EVQLVESGGGLVQPGGSLRLSCAASGFSLTNYGVHWVRQAPGKGLEWLGVIWSGGNTDYNTPFTSRFTISRDNSKNTLYLQMNSLRAEDTAVYYCARALTYYDYEFAYWGQGTTVTVSSGGGGSGGGGSGGGGSDIQLTQSPSFLSASVGDRVTITCRASQSIGTNIHWYQQKPGKAPKLLIKYASESISGVPSRFSGSGSGTEFTLTISSLQPEDFATYYCQQNNNWPTTFGAGTKLEIKR
notes: Expressed in E. coli periplasm, monomer purified by SEC; also called anti-EGFR scFv; anti-EGFR scFv IZI08; not shown: C-terminal c-myc tag; C-terminal hexahistidine tag
B2: Ranpirnase-GS-scFv (other)
chain: QDWLTFQKKHITNTRDVDCDNIMSTNLFHCKDKNTFIYSRPEPVKAICKGIIASKNVLTTSEFYLSDCNVTSRPCKYKLKKSTNKFCVTCENQAPVHFVGVGSCGGGGSGGGGSGGGGSEVQLVESGGGLVQPGGSLRLSCAASGFSLTNYGVHWVRQAPGKGLEWLGVIWSGGNTDYNTPFTSRFTISRDNSKNTLYLQMNSLRAEDTAVYYCARALTYYDYEFAYWGQGTTVTVSSGGGGSGGGGSGGGGSDIQLTQSPSFLSASVGDRVTITCRASQSIGTNIHWYQQKPGKAPKLLIKYASESISGVPSRFSGSGSGTEFTLTISSLQPEDFATYYCQQNNNWPTTFGAGTKLEIKR
modifications: Q* at position 1 of SEQ ID NO:4 stands for a pyroglutamate (as printed for Ranpirnase)
notes: also called Ranpimase-GS-scFv; immunoRNase Ranpirnase-GS-scFv; not shown: C-terminal c-myc tag; C-terminal hexahistidine tag

Assays:
[1] = molecular target: T1, epidermal growth factor receptor (EGFR) (human, UniProt P00533 25-1210); experiment: cell-based or functional assay
[2] = molecular target: T1, epidermal growth factor receptor (EGFR); experiment: flow cytometry, equilibrium binding on EGFR-expressing A431 cells (apparent KD)
Experimental: Detection of bound antibody or immunoRNase was performed using murine anti-c-myc monoclonal antibody clone 9E10 (Roche, Penzberg, Germany) and goat-anti-mouse fluorescein isothiocyanate (FITC) conjugate (Jackson ImmunoResearch, Suffolk, UK). Fluorescence of stained cells was measured on a FACS Canto II flow cytometer (Becton Dickinson) using the FACS Diva Software (Becton Dickinson). Background fluorescence was substracted from measured median fluorescence and relative affinities were calculated by nonlinear regression using GraphPad Prism 5.0 (GraphPad Software, La Jolla, Calif., USA).

Binder | IC50 (nM), cell viability, A431 [1] [nM] | IC50 (nM), cell viability, HNO97 [1] [nM] | IC50 (nM), cell viability, HNO211 [1] [nM] | IC50 (nM), cell viability, HNO410 [1] [nM] | Kd [2] [nM]
B1 | > 3620 | > 3620 | > 3620 | > 3620 | 9.6
B2 | > 3620 | 1260 | 1420 | 2520 | 14.7
